Broadly, the stoichiometry N is the number of molecules, sites or subunits per partner or assembly.

The source of these data is publication PMC9972960.

For assay [1], the target named is purified vaccine protein with HA from influenza A/PR/8/1934 (H1N1), with the C-terminal foldon trimerization domain (influenza A/PR/8/1934 (H1N1) | T4 phage) (UniProt P03452). In words: SEC. In general terms: In gel filtration, larger molecules generally elute earlier.
For assay [2] the target is unchanged. Put plainly: native gel or EMSA. (In general: In EMSA bound probe runs differently from free probe, usually more slowly.)

Turning to “purified vaccine protein with HA from influenza A/PR/8/1934 (H1N1), with the C-terminal foldon trimerization domain (from UniProt P03452)”, the stoichiometry N in assay [1] and in assay [2] was 3 throughout.
